Laboratory results from US20250313635A1, “ANTI-INTEGRIN ANTIBODIES AND USES THEREOF” (Merck Sharp & Dohme LLC, priority 2022, published 2025).

How the values were obtained:
[1] = target: T1, mαvβ8 (Mus musculus, UniProt P43406+Q0VBD0); assay: Mouse AlphaLISA integrin-ligand blocking assay (LAP); type: biochemical; details: Table 12; read-out: IC50 Mouse integrin AlphaLISA assays mαvβ8
T1 construct: The full extracellular domains for all α and β integrin subunits; (GGGS)3 linker (C); acidic coiled-coil with cysteine (C); GG-Avitag (C); hexa-histidine tag (C); basic coiled-coil with cysteine (C); made in house; host or cells: Expi293 cells
Method: (§1) Integrin AlphaLISA assay. In the AlphaLISA integrin assays, we used a HEPES based buffer (25 mM HEPES pH 7.4, 137 mM NaCl, 1 mM MgCl2, 1 mM MnCl2, 2 mM CaCl2, 2.7 mM KCl, and 0.05% Tween 20). Optimal assay conditions were determined with a titration of the reagents for signal noise ratio (S/N), linear range, etc. For the respective integrins, we used the final concentrations described in Table 9.
(§2) Briefly, the testing antibody (8 μL) was added as a 4×(of Final testing concentration) solution in the HEPES buffer described previously into a 384w AlphaPlate™ (Perkin Elmer #6005350). Then the integrin and ligand were added sequentially as 8×(4 μL each). Plates were sealed and incubated at room temperature for two hours. Then 4×acceptor bead solution ([…]) was added, and the plates were resealed and incubated at room temperature (RT) for one hour. Finally, 4×([…]) donor beads solution was added in a darkened room and incubated for 45 minutes at room temperature. Plates were read on the Envision (Perkin Elmer) in AlphaScreen™ mode within three hours of donor bead addition.

[2] = target: T2, mα5β1 (Mus musculus, UniProt P09055+P11688); assay: Mouse AlphaLISA integrin-ligand blocking assay (fibronectin); type: biochemical; details: Table 12; read-out: IC50 Mouse integrin AlphaLISA assays mα5β1
T2 construct: The full extracellular domains for all α and β integrin subunits; (GGGS)3 linker (C); acidic coiled-coil with cysteine (C); GG-Avitag (C); hexa-histidine tag (C); basic coiled-coil with cysteine (C); made in house; host or cells: Expi293 cells
Method: as §1, §2

[3] = target: T3, mαvβ6 (Mus musculus, UniProt P43406+Q9Z0T9); assay: Mouse AlphaLISA integrin-ligand blocking assay (LAP); type: biochemical; details: Table 12; read-out: IC50 Mouse integrin AlphaLISA assays mαvβ6
T3 construct: The full extracellular domains for all α and β integrin subunits; (GGGS)3 linker (C); acidic coiled-coil with cysteine (C); GG-Avitag (C); hexa-histidine tag (C); basic coiled-coil with cysteine (C); made in house; host or cells: Expi293 cells
Method: as §1, §2

[4] = target: T4, hαvβ6 (Homo sapiens, UniProt P06756+P18564); assay: Integrin cell-based ELISA (CELISA) binding, CHOK1-human αvβ6 cells; details: FIG. 3C
T4 construct: expressed in transfected cells
Method: (§3) Integrin cell-based ELISA (CELISA) assay. Cell binding EC50 data for antibodies were obtained for CHOK1 parental cells and CHOK1 cells expressing human or mouse αvβ1, αvβ6, and αvβ1 integrins by cell-based ELISA. Three days prior to the assay cells were seeded at 10,000 cells per well in 100 μL/well of media in Falcon 96-well Flat-Bottom Tissue Culture Plates (REF 353916), resulting in an even cell monolayer in each well on the day of the assay. On the day of the assay, media was removed from the cells and a fivefold titration of primary antibodies was added at concentrations ranging from 0 to 200 nM in TBSF+MnCl2 buffer (25 mM Tris, 0.15 M NaCl, 0.1% BSA, 0.5 mM MnCl2, pH 7.5). Cells incubated with primary antibody solution for 1 hour at room temperature. Primary antibody was removed and plates were washed twice with 150 μL/well of 1×DPBS+Tween 20 (TEKnova Cat #β0297, diluted to 1× in distilled water GIBCO #15230-147), before adding 50 μL/well of a 1:5000 dilution of HRP-conjugated goat anti-mouse IgG (Southern Biotech, #1030-05) in TBSF+MnCl2. After 30 minutes of incubation at room temperature, secondary antibody was removed, and cells were washed twice with 150 μL/well of 1×DPBS+Tween 20. […] Absorbance was read on a TECAN plate reader at 450 nm, with a 620 nm reference wavelength.

[5] = target: T5, mαvβ5 (Mus musculus, UniProt O70309+P43406); assay: Mouse AlphaLISA integrin-ligand blocking assay (vitronectin); type: biochemical; details: Table 12; read-out: IC50 Mouse integrin AlphaLISA assays mαvβ5
T5 construct: The full extracellular domains for all α and β integrin subunits; (GGGS)3 linker (C); acidic coiled-coil with cysteine (C); GG-Avitag (C); hexa-histidine tag (C); basic coiled-coil with cysteine (C); made in house; host or cells: Expi293 cells
Method: as §1, §2

[6] = target: T6, mαvβ3 (Mus musculus, UniProt O54890+P43406); assay: as above; type: biochemical; details: Table 12; read-out: IC50 Mouse integrin AlphaLISA assays mαvβ3
T6 construct: The full extracellular domains for all α and β integrin subunits; (GGGS)3 linker (C); acidic coiled-coil with cysteine (C); GG-Avitag (C); hexa-histidine tag (C); basic coiled-coil with cysteine (C); made in house; host or cells: Expi293 cells
Method: as §1, §2

[7] = target: T7, hαvβ1 (Homo sapiens, UniProt P05556+P06756); assay: Integrin cell-based ELISA (CELISA) binding, CHOK1-human αvβ1 cells; details: FIG. 3C
T7 construct: expressed in transfected cells
Method: as §3

[8] = target: T8, mαvβ1 (Mus musculus, UniProt P09055+P43406); assay: Mouse AlphaLISA integrin-ligand blocking assay (fibronectin); type: biochemical; details: Table 12; read-out: IC50 Mouse integrin AlphaLISA assays mαvβ1
T8 construct: The full extracellular domains for all α and β integrin subunits; (GGGS)3 linker (C); acidic coiled-coil with cysteine (C); GG-Avitag (C); hexa-histidine tag (C); basic coiled-coil with cysteine (C); made in house; host or cells: Expi293 cells
Method: as §1, §2

[9] = test system: IPF patient lung fibroblasts; assay: αSMA imaging, TGFβ-induced αSMA expression; type: cell-based, human; details: TGFβ 5 ng/mL, 48 hours, read-out: IC50 of αSMA expression
Method: αSMA imaging. Primary cells (passage 3-5) were grown on Cell carrier Ultra, collagen Type 1 coated 96-well plates (Perkin Elmer, #6055700) at a density of 25,000 cells/well. Once the cells adhere, they were starved in serum free media for 24 hours followed by addition of treatments, i.e., 5 ng/mL TGFβ (Biolegend #580702)±inhibitors. Cells were pre-treated with inhibitors for 30 minutes prior to the addition of TGFβ stimulation. 48 hours post treatment, the cells were fixed in 4% methanol free paraformaldehyde (ThermoFisher Scientific #28908) for 20 minutes at room temperature and incubated with anti-alpha smooth muscle Actin antibody (Abcam #ab7817) at 1:4000 overnight at 4° C. Following primary antibody incubation, cells were incubated with Goat anti-mouse secondary antibody (ThermoFisher Scientific #A32723) at 1:500 and Hoechst (ThermoFisher Scientific #62249) at 1:1000 for one hour at RT. The fixed and stained cells were images for immunofluorescence on Perkin Elmer's Opera Phenix high content Imager.

[10] = target: T9, mouse αvβ8 (Mus musculus, UniProt P43406+Q0VBD0); assay: Latent TGFβ activation assay, TMLC / CHOK1-integrin co-culture (PAI-1 luciferase); type: cell-based; details: FIG. 5B
T9 construct: expressed in transfected cells
Method: (§4) Latent TGFβ activation assay. Transfected mink lung epithelial cell (TMLC) cell line containing the TGFβ responsive PAI-1 promoter driving luciferase expression (Mazzieri et al, Methods Mol. Biol. 142, 13-27 (2000)) and the CHO-K1 human and mouse αvβ×integrin cell lines were grown under optimized growth conditions to 90% confluency. TMLC cells were trypsinized and plated at 25,000 cells/well in 50 μL in Costar clear bottom white walled plates. In a separate plate, 25 μL of serially diluted antibodies at 4×concentration were added to wells containing 25 μL of either 25,000 cells of human or mouse αvβ×cells. After a brief mixing, the 50 μL mixture was transferred to the TMLC cell plates for a total volume of 100 μL and incubated at 37° C. for 16 hours. 100 μL of ONE-Glo kit (#PRE6120) was added to each well and read after three to five minutes on the Envision plate reader.

[11] = target: T10, human αvβ6 (Homo sapiens, UniProt P06756+P18564); assay: as above; type: cell-based; details: FIG. 5B
T10 construct: expressed in transfected cells
Method: as §4

[12] = target: T11, mouse αvβ6 (Mus musculus, UniProt P43406+Q9Z0T9); assay: as above; type: cell-based; details: FIG. 5B
T11 construct: expressed in transfected cells
Method: as §4

[13] = target: T12, mouse αvβ1 (Mus musculus, UniProt P09055+P43406); assay: as above; type: cell-based; details: FIG. 5B
T12 construct: expressed in transfected cells
Method: as §4

[14] = target: T13, human αvβ1 (Homo sapiens, UniProt P05556+P06756); assay: as above; type: cell-based; details: FIG. 5B
T13 construct: expressed in transfected cells
Method: as §4

[15] = target: T14, human αvβ8 (Homo sapiens, UniProt P06756+P26012); assay: as above; type: cell-based; details: FIG. 5B
T14 construct: expressed in transfected cells
Method: as §4

[16] = target: hα5β1 (Homo sapiens, UniProt P05556+P08648); assay: Human AlphaLISA integrin-ligand blocking assay (fibronectin); type: biochemical; design: The full extracellular domains for all α and β integrin subunits; (GGGS)3 linker (C); acidic coiled-coil with cysteine (C); GG-Avitag (C); hexa-histidine tag (C); basic coiled-coil with cysteine (C); made in house; host or cells: Expi293 cells; details: Table 11; read-out: IC50 Human integrin AlphaLISA assays hα5β1
Method: as §1, §2

T2 sequence (P11688 45-999 limits assumed): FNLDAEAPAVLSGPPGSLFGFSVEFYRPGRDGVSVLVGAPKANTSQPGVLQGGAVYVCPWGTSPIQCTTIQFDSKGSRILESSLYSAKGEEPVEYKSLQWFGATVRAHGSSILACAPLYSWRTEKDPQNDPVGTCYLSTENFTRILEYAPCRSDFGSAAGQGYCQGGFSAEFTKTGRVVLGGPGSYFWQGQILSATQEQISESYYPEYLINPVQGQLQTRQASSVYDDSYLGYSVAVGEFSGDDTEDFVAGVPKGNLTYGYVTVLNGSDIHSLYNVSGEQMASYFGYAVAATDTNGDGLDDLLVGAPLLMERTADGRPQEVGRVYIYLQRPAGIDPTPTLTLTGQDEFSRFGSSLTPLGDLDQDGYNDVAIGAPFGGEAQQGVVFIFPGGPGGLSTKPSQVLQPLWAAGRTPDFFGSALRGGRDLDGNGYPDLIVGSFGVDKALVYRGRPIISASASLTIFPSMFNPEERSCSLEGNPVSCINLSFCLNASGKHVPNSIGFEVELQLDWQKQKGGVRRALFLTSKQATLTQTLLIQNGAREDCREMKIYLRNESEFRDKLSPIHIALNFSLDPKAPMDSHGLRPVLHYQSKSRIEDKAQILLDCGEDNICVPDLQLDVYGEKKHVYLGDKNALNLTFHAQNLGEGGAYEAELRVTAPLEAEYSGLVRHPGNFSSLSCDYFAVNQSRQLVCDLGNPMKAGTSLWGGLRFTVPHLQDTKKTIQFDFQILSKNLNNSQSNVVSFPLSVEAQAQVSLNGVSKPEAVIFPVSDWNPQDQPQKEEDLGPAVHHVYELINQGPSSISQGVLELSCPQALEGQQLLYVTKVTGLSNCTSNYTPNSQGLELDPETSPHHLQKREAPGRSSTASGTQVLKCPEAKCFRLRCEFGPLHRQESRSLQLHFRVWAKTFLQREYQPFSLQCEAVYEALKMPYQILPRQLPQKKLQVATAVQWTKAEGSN
T2 sequence (P09055 21-728 limits assumed): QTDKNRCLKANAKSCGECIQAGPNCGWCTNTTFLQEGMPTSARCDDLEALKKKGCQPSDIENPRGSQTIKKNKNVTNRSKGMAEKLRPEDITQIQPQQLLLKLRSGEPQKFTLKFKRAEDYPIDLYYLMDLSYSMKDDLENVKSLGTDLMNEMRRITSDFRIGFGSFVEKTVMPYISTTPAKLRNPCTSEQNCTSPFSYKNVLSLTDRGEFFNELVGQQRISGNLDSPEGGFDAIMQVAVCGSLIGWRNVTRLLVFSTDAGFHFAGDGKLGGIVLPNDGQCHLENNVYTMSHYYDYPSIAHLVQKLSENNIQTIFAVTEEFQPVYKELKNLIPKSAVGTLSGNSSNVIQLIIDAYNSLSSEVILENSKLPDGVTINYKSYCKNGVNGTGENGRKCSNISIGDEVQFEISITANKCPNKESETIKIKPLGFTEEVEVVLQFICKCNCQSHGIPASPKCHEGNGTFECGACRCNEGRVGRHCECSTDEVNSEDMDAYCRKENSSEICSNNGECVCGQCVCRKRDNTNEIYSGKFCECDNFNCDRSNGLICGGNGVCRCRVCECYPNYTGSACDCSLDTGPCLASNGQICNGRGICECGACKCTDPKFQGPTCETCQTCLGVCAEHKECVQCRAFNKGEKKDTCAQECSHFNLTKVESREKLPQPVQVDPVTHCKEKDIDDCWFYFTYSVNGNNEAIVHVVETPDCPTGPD
T1 sequence (P43406 31-988 limits assumed): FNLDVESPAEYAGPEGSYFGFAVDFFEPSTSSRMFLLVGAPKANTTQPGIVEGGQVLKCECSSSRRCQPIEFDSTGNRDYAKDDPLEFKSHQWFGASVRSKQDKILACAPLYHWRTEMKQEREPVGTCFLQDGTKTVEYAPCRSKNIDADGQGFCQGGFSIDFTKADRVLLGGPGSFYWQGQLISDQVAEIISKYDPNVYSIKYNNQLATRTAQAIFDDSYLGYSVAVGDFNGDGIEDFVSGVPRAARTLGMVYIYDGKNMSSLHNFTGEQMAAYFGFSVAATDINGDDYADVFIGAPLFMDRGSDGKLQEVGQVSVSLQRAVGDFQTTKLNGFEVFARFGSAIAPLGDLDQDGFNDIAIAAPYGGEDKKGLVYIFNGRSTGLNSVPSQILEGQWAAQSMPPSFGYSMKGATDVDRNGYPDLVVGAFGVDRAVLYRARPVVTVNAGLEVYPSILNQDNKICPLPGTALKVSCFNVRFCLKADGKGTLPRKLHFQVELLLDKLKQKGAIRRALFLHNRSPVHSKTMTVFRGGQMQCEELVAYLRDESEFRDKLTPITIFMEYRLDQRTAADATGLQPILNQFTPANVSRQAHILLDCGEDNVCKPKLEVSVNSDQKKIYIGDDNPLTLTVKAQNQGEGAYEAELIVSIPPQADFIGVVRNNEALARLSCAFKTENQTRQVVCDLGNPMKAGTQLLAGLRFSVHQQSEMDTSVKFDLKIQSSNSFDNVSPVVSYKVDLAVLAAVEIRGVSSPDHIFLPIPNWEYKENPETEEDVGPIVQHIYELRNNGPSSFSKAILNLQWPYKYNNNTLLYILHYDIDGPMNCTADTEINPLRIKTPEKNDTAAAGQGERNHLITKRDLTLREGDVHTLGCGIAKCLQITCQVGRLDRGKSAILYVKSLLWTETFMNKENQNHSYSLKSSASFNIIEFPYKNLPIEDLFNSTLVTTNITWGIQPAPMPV
T1 sequence (Q0VBD0 22-681 limits assumed): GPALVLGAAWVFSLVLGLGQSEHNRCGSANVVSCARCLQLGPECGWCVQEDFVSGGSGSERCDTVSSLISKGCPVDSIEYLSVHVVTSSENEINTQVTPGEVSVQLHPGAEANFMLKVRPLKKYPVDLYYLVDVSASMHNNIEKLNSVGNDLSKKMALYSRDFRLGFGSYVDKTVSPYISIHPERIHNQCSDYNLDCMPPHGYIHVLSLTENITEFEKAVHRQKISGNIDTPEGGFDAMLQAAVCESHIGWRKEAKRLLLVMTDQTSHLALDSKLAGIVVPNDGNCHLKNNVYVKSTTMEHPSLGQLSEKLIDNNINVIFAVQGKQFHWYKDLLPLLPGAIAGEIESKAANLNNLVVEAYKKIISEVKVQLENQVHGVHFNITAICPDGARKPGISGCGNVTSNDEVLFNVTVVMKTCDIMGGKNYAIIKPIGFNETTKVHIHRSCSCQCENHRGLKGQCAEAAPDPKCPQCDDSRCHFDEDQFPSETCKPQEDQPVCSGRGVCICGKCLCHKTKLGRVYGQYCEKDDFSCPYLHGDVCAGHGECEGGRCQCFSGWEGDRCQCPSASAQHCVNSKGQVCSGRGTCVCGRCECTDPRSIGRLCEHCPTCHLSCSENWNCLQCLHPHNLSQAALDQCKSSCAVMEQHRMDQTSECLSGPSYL
T8 sequence (P43406 31-988 limits assumed): as the sequence (P43406 31-988 limits assumed) above
T8 sequence (P09055 21-728 limits assumed): as the sequence (P09055 21-728 limits assumed) above
T6 sequence (P43406 31-988 limits assumed): as the sequence (P43406 31-988 limits assumed) above
T6 sequence (O54890 26-717 limits assumed): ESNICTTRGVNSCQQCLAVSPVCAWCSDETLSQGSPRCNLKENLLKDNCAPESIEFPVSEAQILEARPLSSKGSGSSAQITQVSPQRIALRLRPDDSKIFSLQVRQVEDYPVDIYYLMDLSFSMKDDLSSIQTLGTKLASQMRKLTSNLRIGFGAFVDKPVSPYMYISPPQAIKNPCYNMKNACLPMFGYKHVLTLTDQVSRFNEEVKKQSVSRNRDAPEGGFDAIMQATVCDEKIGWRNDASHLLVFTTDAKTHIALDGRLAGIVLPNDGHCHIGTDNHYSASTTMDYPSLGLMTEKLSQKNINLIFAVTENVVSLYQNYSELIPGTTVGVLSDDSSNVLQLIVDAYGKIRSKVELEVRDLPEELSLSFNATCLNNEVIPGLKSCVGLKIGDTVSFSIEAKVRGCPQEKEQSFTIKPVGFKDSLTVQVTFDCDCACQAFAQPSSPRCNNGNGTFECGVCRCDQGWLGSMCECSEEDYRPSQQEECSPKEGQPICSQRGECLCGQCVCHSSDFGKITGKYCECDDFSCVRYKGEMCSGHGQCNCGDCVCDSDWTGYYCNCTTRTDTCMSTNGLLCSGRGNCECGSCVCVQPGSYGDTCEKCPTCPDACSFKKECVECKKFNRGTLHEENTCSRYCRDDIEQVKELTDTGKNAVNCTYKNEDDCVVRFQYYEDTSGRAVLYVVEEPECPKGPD
T5 sequence (P43406 31-988 limits assumed): as the sequence (P43406 31-988 limits assumed) above
T5 sequence (O70309 24-719 limits assumed): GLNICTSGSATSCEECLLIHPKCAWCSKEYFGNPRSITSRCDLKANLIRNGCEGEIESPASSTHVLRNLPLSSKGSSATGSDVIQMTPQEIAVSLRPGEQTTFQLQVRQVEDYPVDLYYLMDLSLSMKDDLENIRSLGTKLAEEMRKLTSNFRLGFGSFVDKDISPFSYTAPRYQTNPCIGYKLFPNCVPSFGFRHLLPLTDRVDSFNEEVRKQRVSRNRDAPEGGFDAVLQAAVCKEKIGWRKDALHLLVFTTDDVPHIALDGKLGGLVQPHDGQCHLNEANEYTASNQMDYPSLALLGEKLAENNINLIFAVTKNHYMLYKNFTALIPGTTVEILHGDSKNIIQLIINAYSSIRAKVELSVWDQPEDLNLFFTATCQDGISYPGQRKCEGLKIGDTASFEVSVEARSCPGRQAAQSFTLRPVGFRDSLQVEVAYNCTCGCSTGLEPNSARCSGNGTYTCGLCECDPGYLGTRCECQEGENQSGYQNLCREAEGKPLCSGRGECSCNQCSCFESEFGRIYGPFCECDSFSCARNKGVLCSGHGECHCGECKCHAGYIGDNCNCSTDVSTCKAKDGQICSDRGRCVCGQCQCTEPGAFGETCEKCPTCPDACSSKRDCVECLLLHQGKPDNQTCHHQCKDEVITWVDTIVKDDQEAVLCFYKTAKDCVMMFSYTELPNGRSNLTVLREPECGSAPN

IC50 [1]	IC50 [2]	IC50 [3]	binding to human αvβ6 integrin in CELISA [4]	IC50 [5]	IC50 [6]	binding to human αvβ1 integrin in CELISA [7]	IC50 [8]	inhibition of latent TGFβ activation, mouse αvβ8 co-culture [10]	inhibition of latent TGFβ activation, human αvβ6 co-culture [11]	inhibition of latent TGFβ activation, mouse αvβ6 co-culture [12]	inhibition of latent TGFβ activation, mouse αvβ1 co-culture [13]	inhibition of latent TGFβ activation, human αvβ1 co-culture [14]	inhibition of latent TGFβ activation, human αvβ8 co-culture [15]	IC50 [16]	Molecule	IC50 [9]
24.7 nM	> 250 nM	–	–	–	–	–	–	–	–	–	–	–	–	–	Ab-33: integrin binder antibody, VH SEQ ID NO: 39, VL SEQ ID NO: 40 (antibody, V domains shown) VH: EVQLVQSGAEVKKPGSSVKVSCKASGGTFSNYAISWVRQAPGQGLEWMGGIIPIFGTANYAQKFQGRVTITADESTSTAYMELSSLRSEDTAVYYCARAPRSARGDMYYYYYGMDVWGQGTTVTVSS VL: DIQMTQSPSTLSASVGDRVTITCRASQSIGSWLAWYQQKPGKAPKLLIYKASSLESGVPSRFSGSGSGTEFTLTISSLQPDDFATYYCQQYGRYPWTFGGGTKVEIK	–
102 nM	> 250 nM	–	–	–	–	–	–	–	–	–	–	–	–	–	Ab-29: integrin binder antibody, VH SEQ ID NO: 31, VL SEQ ID NO: 32 (antibody, V domains shown) VH: ELQLQESGPGLVKPSETLSLTCTVSGGSISSNSYYWGWIRQPPGKGLEWIGSIYYSGSTYYNPSLKSRVTISVDTSKNQFSLKLSSVTAADTAVYYCARVRRVAGRGDSYYYYYGMDVWGQGTTVTVSS VL: DIQMTQSPSSVSASVGDRVTITCRASQGISRWLAWYQQKPGKAPKLLIYAASSLQSGVPSRFSGSGSGTDFTLTISSLQPEDFATYYCQQAISHPWTFGGGTKVEIK	–
> 250 nM	> 250 nM	> 250 nM	preferentially bound	> 250 nM	> 250 nM	preferentially bound	> 250 nM	minimal activity	potent	minimal activity	minimal activity	potent	potent	> 250 nM	mAb-24: control antibody abituzumab; 17E6, a therapeutic pan-αv integrin antibody (antibody, chains of the INN, looked up, V domains shown) VH: QVQLQQSGGELAKPGASVKVSCKASGYTFSSFWMHWVRQAPGQGLEWIGYINPRSGYTEYNEIFRDKATMTTDTSTSTAYMELSSLRSEDTAVYYCASFLGRGAMDYWGQGTTVTVSS VL: DIQMTQSPSSLSASVGDRVTITCRASQDISNYLAWYQQKPGKAPKLLIYYTSKIHSGVPSRFSGSGSGTDYTFTISSLQPEDIATYYCQQGNTFPYTFGQGTKVEIK	> 1000 nM
